# In patent US20230227406:
# Target: PTEN (substrate in the in vitro ubiquitination reaction) (UniProt P60484)
# Sequence (P60484 whole entry): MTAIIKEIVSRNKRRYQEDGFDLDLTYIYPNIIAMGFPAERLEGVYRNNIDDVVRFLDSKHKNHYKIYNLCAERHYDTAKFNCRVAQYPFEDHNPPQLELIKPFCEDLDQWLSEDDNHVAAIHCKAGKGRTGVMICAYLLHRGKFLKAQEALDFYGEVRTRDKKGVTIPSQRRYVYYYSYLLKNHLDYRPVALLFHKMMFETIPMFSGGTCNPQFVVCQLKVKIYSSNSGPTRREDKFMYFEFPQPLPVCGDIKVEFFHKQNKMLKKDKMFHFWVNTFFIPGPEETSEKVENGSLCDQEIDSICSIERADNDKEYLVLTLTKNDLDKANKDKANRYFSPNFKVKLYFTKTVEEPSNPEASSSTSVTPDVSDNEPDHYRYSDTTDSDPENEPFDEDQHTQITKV
substance,measurement,value
"WWP1 ligase (recombinant, Ubiquigent #63-0034-025)","in vitro ubiquitination reaction, TMT LC-MS/MS of ubiquitin sites on PTEN","Specific ubiquitin sites on PTEN demonstrate greater occupancy (e.g., K237 and K342) when K27-only ubiquitin is used in the reaction vs wild type ubiquitin"
same,"in vitro ubiquitination reaction, western blot using an anti-ubiquitin antibody","in the presence of K27 only ubiquitin, PTEN substrate ubiquitin is preferred. PTEN is readily ubiquitinated with non-chain forming ubiquitin"
